Test [1] has as its target T1, full-length human Notch3 expressed on the cell surface (human, UniProt Q9UM47 40-2321). The test can be described thus: cell-based or functional assay.
For test [2], the target named is T2, mouse Notch3 NRR recombinant protein (Notch3 NRR_Avi_His tag) (mouse).
T2 construct: The entry includes the C-terminal Avi and His tag; S1-cleaved heterodimer as for the human protein
T2 chain: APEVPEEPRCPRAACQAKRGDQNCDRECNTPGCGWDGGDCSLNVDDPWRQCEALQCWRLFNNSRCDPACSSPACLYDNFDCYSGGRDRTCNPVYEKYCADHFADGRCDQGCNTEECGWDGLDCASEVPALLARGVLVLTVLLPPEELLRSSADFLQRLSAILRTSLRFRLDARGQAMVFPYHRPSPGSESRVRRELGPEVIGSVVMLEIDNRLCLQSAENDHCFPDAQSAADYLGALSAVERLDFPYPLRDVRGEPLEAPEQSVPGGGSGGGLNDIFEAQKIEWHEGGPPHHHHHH
Briefly: ELISA, recombinant protein, hybridoma supernatant. In general terms: In an ELISA, binding on a coated surface is turned into a signal by an enzyme label.

Test [3] deals with T3, human Notch3 NRR recombinant protein (Notch3 NRR_Avi_His tag) (human).
T3 construct: Purified from CHO-PACE cells; the entry includes the C-terminal Avi and His6 tag
T3 chain: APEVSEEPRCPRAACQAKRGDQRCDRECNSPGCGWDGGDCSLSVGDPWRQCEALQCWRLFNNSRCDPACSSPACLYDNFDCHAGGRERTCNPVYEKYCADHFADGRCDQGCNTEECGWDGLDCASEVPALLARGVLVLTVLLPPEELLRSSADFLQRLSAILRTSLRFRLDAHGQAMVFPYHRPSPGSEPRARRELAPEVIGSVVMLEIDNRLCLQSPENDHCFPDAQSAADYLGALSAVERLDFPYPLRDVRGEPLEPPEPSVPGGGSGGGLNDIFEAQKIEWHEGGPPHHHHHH
Briefly: ELISA, recombinant protein, hybridoma supernatant.

The target in test [4] is T1, full-length human Notch3 expressed on …. Briefly: cell-based ELISA, MDA-MB-468 cells; SD 0.063.
Experimental: (§1) On the day of the ELISA, culture media was removed from wells and serially diluted (1:3 in DPBS with calcium chloride and magnesium chloride (Ca/Mg) and 1% BSA) antibody and ADC solutions were applied to the plate. Plates were incubated at room temperature for 2 hours before washed with DPBS with Ca/Mg and 1% BSA. HRP-conjugated secondary antibody was then applied and incubated with cells for 1 hour. Plates were washed with DPBS with Ca/Mg and 1% BSA before being developed with Pico-Chemiluminescent developing kit (Thermal Scientific), and chemiluminescence measurements were performed per manufacturer's instructions. Data plotting and analyses were performed with Microsoft Excel and Graphpad-Prism software.
Test [5] has the same target. Briefly: cell-based ELISA, HCC2429 cells; SD 0.025.
Experimental: as §1
Test [6] has the same target. Briefly: cell-based or functional assay. This is another data set of the same source.
Test [7] has the same target. The test can be described thus: cell-based or functional assay. This is another data set of the same source.
Test [8] shares this target. Briefly: cell-based ELISA, U2OS/hNotch3 cells; SD 0.029.
Experimental: as §1
Test [9] has the same target. The test can be described thus: cell-based ELISA, MDA-MB-468 cells; SD 0.054.
Experimental: as §1
Test [10] concerns the target T3, human Notch3 NRR recombinant protein …. Briefly: SPR (Biacore T100), antibody captured on anti-human IgG-Fc, Notch3 NRR as analyte, 1:1 Langmuir fit. For orientation: SPR reads the build-up and loss of mass on a sensor chip optically.
Experimental: The kinetic constants of the anti-Notch3 NRR interactions were determined by surface plasmon resonance (Biacore® T100, Biacore Inc., Piscataway, N.J.). Flow cells of a CM5 chip were immobilized with approximately 10,000 response units (RU) of anti-human IgG-Fc (Biacore®) in 10 mM Glycine, pH 5.0 at 10 μl/min for 600 seconds. […] Association of four concentrations of human Notch3 NRR recombinant protein (from 3.7-100 nM) and a zero concentration (running buffer) at 100 μl/min were recorded for 3 minutes in TBS with 1 mM CaCl₂. Dissociation of the complexes was measured for 10 minutes. The surface of the chip was regenerated by injecting 3M MgCl₂ with 3 mM EGTA for 60 seconds at 10 μl/min. Curves obtained after subtraction of the reference and buffer signals were fitted to a 1:1 Langmuir binding model with Biacore® T100 Evaluation Software (Biacore®).
Test [11] deals with T1, full-length human Notch3 expressed on …. The test can be described thus: cell-based ELISA, HCC2429 cells; SD 0.009.
Experimental: as §1
Test [12] addresses T4, full-length mouse Notch3 expressed on the cell surface (mouse, UniProt Q61982 40-2318).
T4 construct: whole, on cells; Over-expressed on U-2 OS cells; also called U2OS/mNotch3
Briefly: cell-based ELISA, U2OS/mNotch3 cells.
Experimental: (§2) U-2 OS cells stably over-expressing human or mouse full length Notch3 protein on cell surface (hereinafter U2OS/hNotch3 and U2OS/mNotch3, respectively) were plated at 50,000 cells/well in 96 well plates (white opaque, BD/VWR) the day before ELISA assay. On the day of the ELISA, culture media was removed from wells and serially diluted (1:3 in blocking buffer) antibody solutions were applied to the plate. Plates were incubated at room temperature for 2 hours before being washed with PBS-Mg/Ca. HRP-conjugated secondary antibody was then applied and incubated with cells for 1 hour as described above for recombinant protein ELISA. Plates were washed with PBS-Mg/Ca before being developed with Pico-Chemiluminescent developing kit (Thermal Scientific), and chemiluminescence measurements were performed per manufacturer's instructions. Data plotting and analyses were performed with Microsoft Excel and Graphpad-Prism software.

Test [13] concerns the target T1, full-length human Notch3 expressed on …. The test can be described thus: competition ELISA on U2OS/hNotch3 cells; competitor 0.8 nM biotinylated ch28.
Experimental: (§3) 96 well cell culture plates were seeded with U2OS/hNotch3 cells (cell culture plate, Co-star). […] After incubation for 2 hours, the plates were washed, as described above, and HRP-conjugated streptavidin (Southern Biotech) diluted 1:5000 in blocking buffer was applied. After incubation with streptavidin for 30 minutes, the plates were washed again before being developed with TMB solution for 10 minutes. […] Data plotting and analyses were performed with Microsoft Excel and Graphpad-Prism software.
The target is the same in test [14]. Briefly: cell-based ELISA, U2OS/hNotch3 cells.
Experimental: as §2
For test [15] the target is unchanged. The test can be described thus: cell-based ELISA, U2OS/hNotch3 cells; SD 0.077.
Experimental: as §1
The target in test [16] is Notch3-NRR (human). The test can be described thus: ELISA: NRR-Fc protein coated at 1 ug/ml, antibody applied at 5 ug/ml, goat anti-human Fc-HRP, TMB, O.D. 450 nM.
Experimental: After 1 hour of incubation, plates were washed with PBS with 0.9 mM Mg²⁺ and Ca²⁺, before secondary goat anti-human Fc antibody conjugated with HRP were applied and incubated on the plates. After washing again, the plates were developed with TMB and the developing reactions were stopped by adding 0.18M H₂SO₄.
The target in test [17] is T5, human Notch1 NRR-Fc (human, UniProt P46531 1446-1733, limits assumed).
T5 construct: domain: NRR region; Made in CHO-PACE cells; not shown: human IgG1 Fc fragment
T5 sequence (looked up): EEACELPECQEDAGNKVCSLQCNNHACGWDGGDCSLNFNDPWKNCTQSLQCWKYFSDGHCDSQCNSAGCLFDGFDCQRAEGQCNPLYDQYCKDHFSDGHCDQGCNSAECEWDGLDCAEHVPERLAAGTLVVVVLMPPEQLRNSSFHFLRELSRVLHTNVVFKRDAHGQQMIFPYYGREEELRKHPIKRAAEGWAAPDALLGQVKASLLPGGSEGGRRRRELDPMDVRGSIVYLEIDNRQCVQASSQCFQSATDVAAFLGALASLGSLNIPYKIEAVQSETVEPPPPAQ
The test is described as above.

Test [18] has as its target T3, human Notch3 NRR recombinant protein …. The test can be described thus: ELISA, plate-coated recombinant protein.
Experimental: Purified human or mouse Notch3 NRR recombinant proteins were coated on CoStar hi-bound 96-well ELISA plates in 100 μl of PBS with Mg/Ca at a concentration of 1 μg/ml overnight. The plates were washed with PBS-Mg/Ca and blocked for 1 hour with 1% BSA in PBS-Mg/Ca. Blocking solution was decanted from the plate and 1:3 serial dilutions of antibodies in blocking solutions were applied to the plate. After incubation at room temperature for 1 hour, plates were washed again with PBS-Mg/Can before HRP (horse radish peroxidase)-conjugated secondary antibody diluted (1:20,000) in blocking buffer was applied. When the primary antibody tested was rat IgG, the secondary antibody was goat anti-rat IgG Fc (Bethyl Biotech); and when the primary antibody was human IgG, the secondary antibody was goat anti-human IgG Fc (Southern Biotech).
After 1 hour incubation with the secondary antibody, plates were washed again, as described above, and TMB substrate solution was added. The developing reaction was allowed for 10 minutes before the stopping solution, 0.18M H₂SO₄, was added.
Test [19] has as its target T1, full-length human Notch3 expressed on …. The test can be described thus: competition ELISA on U2OS/hNotch3 cells; competitor 0.8 nM biotinylated ch75.
Experimental: as §3

Read-outs that look alike come from different tables or passages of the source. Some results are limits rather than exact numbers.

T1 sequence (Q9UM47 40-2321): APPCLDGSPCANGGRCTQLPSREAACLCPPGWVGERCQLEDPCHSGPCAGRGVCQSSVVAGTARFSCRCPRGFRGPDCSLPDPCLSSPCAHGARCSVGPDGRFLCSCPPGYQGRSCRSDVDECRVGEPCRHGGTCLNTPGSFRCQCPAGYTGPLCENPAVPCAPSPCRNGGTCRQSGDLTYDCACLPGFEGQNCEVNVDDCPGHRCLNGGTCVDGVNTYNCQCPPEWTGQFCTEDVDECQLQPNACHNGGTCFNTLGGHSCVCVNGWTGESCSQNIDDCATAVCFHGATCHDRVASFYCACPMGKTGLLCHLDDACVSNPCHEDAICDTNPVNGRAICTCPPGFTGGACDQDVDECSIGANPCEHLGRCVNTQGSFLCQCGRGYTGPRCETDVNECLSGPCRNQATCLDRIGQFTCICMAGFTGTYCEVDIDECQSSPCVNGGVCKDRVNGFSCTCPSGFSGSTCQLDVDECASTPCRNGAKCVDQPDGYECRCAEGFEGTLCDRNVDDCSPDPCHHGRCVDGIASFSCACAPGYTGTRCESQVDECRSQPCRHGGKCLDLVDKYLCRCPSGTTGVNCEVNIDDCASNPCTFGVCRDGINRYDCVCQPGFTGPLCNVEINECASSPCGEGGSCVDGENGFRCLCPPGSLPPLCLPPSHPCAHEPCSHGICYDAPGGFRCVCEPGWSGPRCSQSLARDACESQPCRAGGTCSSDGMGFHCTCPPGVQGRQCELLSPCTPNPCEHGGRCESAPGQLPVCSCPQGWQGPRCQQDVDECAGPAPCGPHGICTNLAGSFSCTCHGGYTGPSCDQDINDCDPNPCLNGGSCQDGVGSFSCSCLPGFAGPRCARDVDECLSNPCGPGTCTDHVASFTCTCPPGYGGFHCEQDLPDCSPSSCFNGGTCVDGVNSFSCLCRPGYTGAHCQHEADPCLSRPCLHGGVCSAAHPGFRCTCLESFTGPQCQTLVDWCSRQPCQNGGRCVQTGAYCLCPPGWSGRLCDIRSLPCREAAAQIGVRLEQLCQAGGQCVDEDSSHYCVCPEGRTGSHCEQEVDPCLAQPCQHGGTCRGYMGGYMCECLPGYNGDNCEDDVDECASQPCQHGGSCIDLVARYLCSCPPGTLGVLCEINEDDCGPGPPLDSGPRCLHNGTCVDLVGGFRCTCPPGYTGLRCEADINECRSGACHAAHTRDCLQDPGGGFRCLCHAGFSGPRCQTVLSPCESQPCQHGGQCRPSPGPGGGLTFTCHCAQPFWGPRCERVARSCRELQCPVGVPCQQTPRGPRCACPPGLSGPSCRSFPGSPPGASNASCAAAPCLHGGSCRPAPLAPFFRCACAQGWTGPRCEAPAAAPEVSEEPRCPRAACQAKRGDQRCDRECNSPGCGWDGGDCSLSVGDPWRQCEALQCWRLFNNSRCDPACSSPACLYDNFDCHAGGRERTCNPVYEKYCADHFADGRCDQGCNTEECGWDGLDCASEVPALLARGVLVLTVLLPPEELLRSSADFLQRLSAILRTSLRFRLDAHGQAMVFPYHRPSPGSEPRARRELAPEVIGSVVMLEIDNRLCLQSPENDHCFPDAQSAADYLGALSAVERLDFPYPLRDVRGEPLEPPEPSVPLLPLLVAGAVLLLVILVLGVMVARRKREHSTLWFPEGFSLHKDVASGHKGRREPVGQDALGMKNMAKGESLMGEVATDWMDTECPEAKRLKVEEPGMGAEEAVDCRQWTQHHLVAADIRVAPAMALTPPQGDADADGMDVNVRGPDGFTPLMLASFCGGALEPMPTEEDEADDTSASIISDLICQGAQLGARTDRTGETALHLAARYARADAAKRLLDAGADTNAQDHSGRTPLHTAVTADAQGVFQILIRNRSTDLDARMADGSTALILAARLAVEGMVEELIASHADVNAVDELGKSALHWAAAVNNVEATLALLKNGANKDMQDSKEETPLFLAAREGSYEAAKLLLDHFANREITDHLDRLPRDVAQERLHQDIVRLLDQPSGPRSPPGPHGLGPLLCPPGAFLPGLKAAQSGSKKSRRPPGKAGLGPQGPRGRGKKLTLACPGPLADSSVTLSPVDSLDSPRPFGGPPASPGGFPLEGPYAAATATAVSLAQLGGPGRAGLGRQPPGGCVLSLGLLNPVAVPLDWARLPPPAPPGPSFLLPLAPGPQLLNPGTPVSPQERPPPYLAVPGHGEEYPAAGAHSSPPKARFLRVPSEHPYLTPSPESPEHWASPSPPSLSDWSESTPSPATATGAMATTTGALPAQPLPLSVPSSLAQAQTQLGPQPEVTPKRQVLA
T4 sequence (Q61982 40-2318): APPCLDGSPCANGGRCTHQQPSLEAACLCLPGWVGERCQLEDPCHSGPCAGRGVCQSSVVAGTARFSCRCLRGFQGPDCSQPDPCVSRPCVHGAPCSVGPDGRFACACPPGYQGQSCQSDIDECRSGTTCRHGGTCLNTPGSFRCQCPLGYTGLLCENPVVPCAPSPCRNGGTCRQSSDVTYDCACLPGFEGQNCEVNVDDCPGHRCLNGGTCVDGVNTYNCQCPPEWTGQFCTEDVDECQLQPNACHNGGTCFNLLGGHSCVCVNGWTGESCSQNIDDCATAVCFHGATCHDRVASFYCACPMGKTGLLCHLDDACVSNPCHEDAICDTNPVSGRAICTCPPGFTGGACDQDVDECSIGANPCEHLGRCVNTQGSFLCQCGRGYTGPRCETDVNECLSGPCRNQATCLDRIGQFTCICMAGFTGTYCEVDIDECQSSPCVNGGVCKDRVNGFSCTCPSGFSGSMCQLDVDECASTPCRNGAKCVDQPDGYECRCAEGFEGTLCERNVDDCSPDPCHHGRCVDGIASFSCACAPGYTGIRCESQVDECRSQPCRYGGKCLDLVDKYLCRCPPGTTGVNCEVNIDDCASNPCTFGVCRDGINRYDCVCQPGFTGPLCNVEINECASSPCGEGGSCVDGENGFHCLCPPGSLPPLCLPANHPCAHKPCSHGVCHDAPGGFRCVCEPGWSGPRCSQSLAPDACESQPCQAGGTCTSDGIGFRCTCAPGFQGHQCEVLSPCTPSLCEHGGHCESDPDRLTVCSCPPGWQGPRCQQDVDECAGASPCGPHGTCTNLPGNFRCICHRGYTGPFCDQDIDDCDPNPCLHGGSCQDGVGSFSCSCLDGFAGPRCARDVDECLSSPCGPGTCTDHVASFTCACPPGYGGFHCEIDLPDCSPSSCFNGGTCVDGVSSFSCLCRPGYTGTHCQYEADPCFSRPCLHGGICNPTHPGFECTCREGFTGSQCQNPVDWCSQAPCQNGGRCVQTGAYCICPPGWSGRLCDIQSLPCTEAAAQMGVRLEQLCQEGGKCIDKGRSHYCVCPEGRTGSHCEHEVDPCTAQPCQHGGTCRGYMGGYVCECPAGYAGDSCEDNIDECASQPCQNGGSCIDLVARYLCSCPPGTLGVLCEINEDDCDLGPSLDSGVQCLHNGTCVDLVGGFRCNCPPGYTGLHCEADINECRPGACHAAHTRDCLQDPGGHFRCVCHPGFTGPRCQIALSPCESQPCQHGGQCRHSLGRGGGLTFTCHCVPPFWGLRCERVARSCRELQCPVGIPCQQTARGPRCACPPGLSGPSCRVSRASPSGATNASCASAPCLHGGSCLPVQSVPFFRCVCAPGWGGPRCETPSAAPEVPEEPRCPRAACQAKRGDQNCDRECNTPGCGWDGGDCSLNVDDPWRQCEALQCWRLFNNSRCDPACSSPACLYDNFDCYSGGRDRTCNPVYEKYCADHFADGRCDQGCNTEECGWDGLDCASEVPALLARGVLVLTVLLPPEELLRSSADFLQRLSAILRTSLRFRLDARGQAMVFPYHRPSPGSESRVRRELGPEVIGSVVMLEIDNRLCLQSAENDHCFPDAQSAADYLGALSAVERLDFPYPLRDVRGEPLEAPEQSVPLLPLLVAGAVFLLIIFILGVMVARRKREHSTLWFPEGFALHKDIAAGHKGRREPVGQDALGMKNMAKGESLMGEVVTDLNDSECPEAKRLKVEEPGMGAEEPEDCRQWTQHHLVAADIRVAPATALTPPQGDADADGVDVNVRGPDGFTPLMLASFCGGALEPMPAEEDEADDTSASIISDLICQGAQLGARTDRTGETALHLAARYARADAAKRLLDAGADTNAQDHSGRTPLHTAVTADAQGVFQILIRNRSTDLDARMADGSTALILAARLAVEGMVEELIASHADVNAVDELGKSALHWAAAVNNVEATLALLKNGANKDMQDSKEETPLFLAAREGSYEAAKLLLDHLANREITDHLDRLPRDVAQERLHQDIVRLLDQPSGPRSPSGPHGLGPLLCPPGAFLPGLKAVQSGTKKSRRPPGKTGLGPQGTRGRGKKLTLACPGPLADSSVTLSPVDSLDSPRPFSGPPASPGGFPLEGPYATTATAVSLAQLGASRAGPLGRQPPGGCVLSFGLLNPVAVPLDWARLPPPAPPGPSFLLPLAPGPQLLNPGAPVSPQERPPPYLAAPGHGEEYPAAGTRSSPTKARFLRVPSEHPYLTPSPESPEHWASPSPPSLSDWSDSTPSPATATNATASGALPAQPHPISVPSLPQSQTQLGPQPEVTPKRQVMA

B1: ch28-me0131 (Notch3-28-cG1-(C)_me-0#118) (antibody, V domains shown)
VH: EVQLVESGGGLVQPGRSLTLSCVASGFTFRDYGMTWIRQAPGKGLTWVAYISSGSNYIYYAEAVKGRFTISRDNAKNTLYLQMTSLRSEDTALYFCTRRGPFVLDAWGQGASVTVSS
VL: DIQMTQSPSFLSASVGDRVTINCKASQSINRYLHWFQQKLGEAPKLLIYNANGLQTGIPSRFSGSGSGTDFTLTISSLQSEDVATYFCLQHNTWPDTFGAGTKLELK
On to B1, for which the “IC50 of cytotoxicity (MTS viability), HCC2429 cells” value in test [1] was 30 ng Ab/mL.

B2: parental rat clone 28 (r28) (antibody, V domains shown)
VH: B1 VH
VL: B1 VL
notes: Rat monoclonal antibody from hybridoma, tested as hybridoma supernatant
Regarding B2, the “O.D. 450 nM” value in test [2] and in [3] was ≥ 1 O.D. 450 nM each time.

B3: ch28-vc0101 (Notch3-28-cG1-(C)_mcValCitPABC-#54) (antibody, V domains shown)
VH: B1 VH
VL: B1 VL
Turning to B3, in test [1], the “IC50 of cytotoxicity (MTS viability), OVCAR3 cells” value (from here on “IC50 of cytotoxicity … OVCAR3 cells”) stood at 635 ng Ab/mL.

B4: hu28-vc0101 (Notch3-28-v1010-hG1-(C)_mcValCitPABC-#54) (antibody, human IgG1, kappa, V domains shown)
VH: EVQLVESGGGLVQPGGSLRLSCAASGFTFRDYGMTWVRQAPGKGLEWVAYISSGSNYIYYAEAVKGRFTISRDNAKNSLYLQMNSLRAEDTAVYYCARRGPFVLDAWGQGTLVTVSS
VL: DIQMTQSPSSLSASVGDRVTITCKASQSINRYLHWYQQKPGKAPKLLIYNANGLQTGVPSRFSGSGSGTDFTLTISSLQPEDFATYYCLQHNTWPDTFGGGTKVEIKR
modifications: vc0101 linker-payload on cysteine residues after partial reduction; sites not specified
notes: Antibody-drug conjugate of hu28
As a reminder, the EC50 is the concentration at which the effect is half-maximal. B4: in test [4], the midpoint of the response, the EC50, lay at 0.273 nM. Further, the midpoint of the response in test [5], the EC50, lay at 0.176 nM. Besides, in [6], the “IC50 of cytotoxicity (MTS viability), HCC2429 cells, repeat 1” value stood at 473 ng Ab/mL; the “IC50 of cytotoxicity (MTS viability), HCC2429 cells, repeat 2” value came out at 2940 ng Ab/mL; the “IC50 of cytotoxicity (MTS viability), MDA-MB-468/hNotch3 cells, repeat 1” value turned out to be 3.2 ng Ab/mL; the “IC50 of cytotoxicity (MTS viability), MDA-MB-468/hNotch3 cells, repeat 2” value was 3 ng Ab/mL. Moreover, in test [6], the “IC50 of cytotoxicity (MTS viability), MDA-MB-468 cells” value (from here on “IC50 … MDA-MB-468 cells”) stood at 6540 ng Ab/mL; the “IC50 of cytotoxicity … OVCAR3 cells” value is 306 ng Ab/mL; the “IC50 of cytotoxicity (MTS viability), U2OS/hNotch3 cells” value came out at 1330 ng Ab/mL. Further, in test [7], the “IC50 of cytotoxicity, MDA-MB-468/hNotch3 cells, Notch3 siRNA (reduced Notch3 expression)” value was 3340 ng Ab/mL and the “IC50 of cytotoxicity, MDA-MB-468/hNotch3 cells, control siRNA” value amounted to 3 ng Ab/mL. In addition, in test [8], the half-maximal effective concentration (EC50) came to 0.266 nM.

B5: hu28 (humanized r28 variant VH1.0/VL1.0) (antibody, human IgG1, kappa, V domains shown)
VH: B4 VH
VL: B4 VL
notes: Human IgG1/kappa; also called hu28 VH1.0/VL1.0; hu28 VH1.0/V1.0
One may read the Kd as the equilibrium constant for the complex coming apart. One may read the koff as a measure of how fast the partners let go of each other. For orientation: kon means a measure of how fast the partners come together. With B5, the EC50 in test [9] amounted to 0.192 nM; in [11], 0.132 nM; in [12], 0.13 nM; in [13], 3.1 nM; in test [14], 0.093 nM; in [15], 0.172 nM. The Kd in [10] was determined as 0.9 nM. Besides, the koff in test [10] is 0.000347 s⁻¹. Moreover, in [10], the kon worked out at 386000 M⁻¹ s⁻¹.

B6: ch75-mc0131 (Notch3-75-cG1-(C)_mc-0#118) (antibody, V domains shown)
VH: QVKLLQSGAALVKPGASVKMSCKASGYAFTDYWVTWVKQSHGKSLEWIGEISPNSGGTNFNEKFKGKATLTVDKSTSTAYMELSRLTSEDSAIYYCTRGEIRYNWFAYWGQGTLVTVSS
VL: DIQMTQSPSSLSASVGDRVTITCKASQNVGNNIAWYQQKPGKAPKLLIYYASNRYTGVPSRFSGSGYGTDFTLTISSLQPEDFATYYCQRLYNSPFTFGGGTKVEIK
As to B6, in test [1], the “IC50 of cytotoxicity … OVCAR3 cells” value is 289 ng Ab/mL and the “IC50 of cytotoxicity (MTS viability), U2OS/hNotch3 cells” value worked out at 19 ng Ab/mL.

B7: ch75-me0131 (Notch3-75-cG1-(C)_me-0#118) (antibody, V domains shown)
VH: B6 VH
VL: B6 VL
As to B7, in test [1], the “IC50 … MDA-MB-468 cells” value was 259 ng Ab/mL.

B8: rat-human chimeric antibody 75 (ch75) (antibody, V domains shown)
VH: B6 VH
VL: NIVMTQSPKSMSISVGDRVTMNCKASQNVGNNIAWYQQKPGQSPKLLIYYASNRYTGVPDRFTGGGYGTDFTLTINSMQAEDAAFYYCQRLYNSPFTFGSGTKLEIK
notes: also called ch75-hIgG1; ch75-hulgG1
Take B8: the Kd in [10] was determined as 17.4 nM. For the same molecule, the koff in test [10] was found to be 0.000992 s⁻¹. Moreover, the kon in test [10] worked out at 57000 M⁻¹ s⁻¹. For the same molecule, the binding result in test [12] is listed as “no binding”; in test [17] it was “no binding (tested: 5 ug/ml)”. Besides, in [16], the “O.D. 450 nM (ELISA, relative binding capacity)” value stood at 1.72. In addition, the EC50 in test [14] was 0.2 nM; in test [18] it was ≤ 1 nM; in test [19], 1.3 nM.

B9: ch75-mc3377 (Notch3-75-cG1-(C)_mc-#115) (antibody, V domains shown)
VH: B6 VH
VL: B6 VL
In the case of B9, the “IC50 … MDA-MB-468 cells” value in test [1] worked out at 560 ng Ab/mL.

B10: ch75-vc6780 (Notch3-75-cG1-(C)_mcValCitPABC-#112) (antibody, V domains shown)
VH: B6 VH
VL: B6 VL
For B10, in test [1], the “IC50 of cytotoxicity … OVCAR3 cells” value was 922 ng Ab/mL.

These data come from patent US20140127211A1 (Pfizer, published 2014).
